Measured values published in patent US20040107456A1 (ACADEMIA SINICA, published 2004).

B1: GAD-OsMYBS1 fusion protein (other)
chain: MTSQAATTTTTAAAAAAWTREDDKAFENALAACAAPPPADGGAPDDDWFAALAASVPGARSAEEVRRHYEALVEDVAAIDAGRVPLPRYAGEESAAPPDGAGAAAAASKDGGHRRDERKGGGGGYDGGKSCSKAEQERRKGIPWTEEEHRLFLLGLDKFGKGDWRSISRNFVISRTPTQVASHAQKYFIRLNSMNRDRRRSSIHDITSVTAGDQVAAQQGAPITGHQATGNPAAAALGPPGMKHHHHHHPGGAPPPMPMYSAAPMGHPVAGHMVPAAVGTPVVFPPGHAPYVVPVGYPAPPAKMHQ
notes: Two-hybrid prey expressed from the Ubi promoter in barley aleurone cells; not shown: limits not
B2: GAD-OsMYBS3 fusion protein (other)
chain: MTRRCSHCSHNGHNSRTCPNRGVKIFGVRLTDGSIRKSASMGNLSLLSSAAGSTSGGASPADGPDAAPTAADGYASDDFVQGFSSATRDRKKGVPWTEEEHRRFLLGLQKLGKGDWRGISRNFVVSRTPTQVASHAQKYFIRQSNMTRRKRRSSLFDMVPDESMDLPPLPGGQEPETQVLNQPALPPPKEEEEVDSMESDTSAVAESSSASAIMPDNLQSTYPVIVPAYFSPFLQFSVPFWQNQKDEDGPVQETHEIVKPVPVHSKSPINVDELVGMSKLSIGESNQETESTSLSLNLVGGQNRQSAFHANPPTRAQA
notes: as for B1

Legend:
[1] = biological target: T1, GBD-OsMYBS2 fusion protein (yeast; rice); assay: two-hybrid in barley aleurone cells, luciferase reporter; similar results in yeast two-hybrid
T1 construct: Two-hybrid bait
Description: (§1) In c-Myb, R2 and R3 bind to specific DNA sequences cooperatively. To test the possibility that OsMYBS binds DNA as dimers, homologous and heterologous interactions among OsMYBS proteins were analyzed using a two-hybrid system in barley aleurone cells. The full-length OsMYBS sequences were individually fused at the C-terminus of GAD or GBD. The GAD-OsMYBS and GBD-OsMYBS chimeric genes were fused downstream of the Ubi promoter and used as effector constructs. A DNA fragment containing five tandem repeats of UAS (5×UAS) was fused upstream of the CaMV35S minimal promoter-Luc chimeric gene and used as a reporter construct. The barley half seeds were particle-bombarded simultaneously with two effector plasmids, each containing GAD-OsMYBS and GBD-OsMYBS fusion genes, and the reporter plasmid. The bombarded half seeds were incubated in buffer without glucose for 24 h, and luciferase activity was determined. […] Except that the background level of reporter gene expression in the presence of GBD-OsMYBS1 alone is too high to detect the interactions between GBD-OsMYBS1 and GAD-OsMYBS proteins, similar results were obtained with the yeast two-hybrid experiments.

[2] = biological target: T2, GBD-OsMYBS3 fusion protein (yeast; rice); assay: as above
T2 construct: Two-hybrid bait
Description: as §1

[3] = biological target: T3, GBD-OsMYBS1 fusion protein (yeast; rice, UniProt P04386 1-147); assay: two-hybrid in barley aleurone cells, luciferase reporter
T3 construct: Two-hybrid bait expressed from the Ubi promoter in barley aleurone cells
Description: as §1

Binder | binding result [1] | binding result [2] | binding result [3]
B1 | no binding | no binding | –
B2 | no binding | no binding | no binding
